Data published in PMC2789969 (Archives of biochemistry and biophysics, 2009).
Like-named read-outs stand apart in the source and are kept apart here.

B2: R369A EGK (enzyme, Escherichia coli, UniProt P0A6F3 1-502, looked up)
chain: MTEKKYIVALDQGTTSSRAVVMDHDANIISVSQREFEQIYPKPGWVEHDPMEIWATQSSTLVEVLAKADISSDQIAAIGITNQRETTIVWEKETGKPIYNAIVWQCRRTAEICEHLKRDGLEDYIRSNTGLVIDPYFSGTKVKWILDHVEGSRERARRGELLFGTVDTWLIWKMTQGRVHVTDYTNASRTMLFNIHTLDWDDKMLEVLDIPREMLPEVRRSSEVYGQTNIGGKGGTRIPISGIAGDQQAALFGQLCVKEGMAKNTYGTGCFMLMNTGEKAVKSENGLLTTIACGPTGEVNYALEGAVFMAGASIQWLRDEMKLINDAYDSEYFATKVQNTNGVYVVPAFTGLGAPYWDPYARGAIFGLTAGVNANHIIRATLESIAYQTRDVLEAMQADSGIRLHALRVDGGAVANNFLMQFQSDILGTRVERPEVREVTALGAAYLAGLAVGFWQNLDELQEKAVIEREFRPGIETTERNYRYAGWKKAVKRAMAWEEHDE
B3: A65T EGK (enzyme, Escherichia coli, UniProt P0A6F3 1-502, looked up)
chain: MTEKKYIVALDQGTTSSRAVVMDHDANIISVSQREFEQIYPKPGWVEHDPMEIWATQSSTLVEVLTKADISSDQIAAIGITNQRETTIVWEKETGKPIYNAIVWQCRRTAEICEHLKRDGLEDYIRSNTGLVIDPYFSGTKVKWILDHVEGSRERARRGELLFGTVDTWLIWKMTQGRVHVTDYTNASRTMLFNIHTLDWDDKMLEVLDIPREMLPEVRRSSEVYGQTNIGGKGGTRIPISGIAGDQQAALFGQLCVKEGMAKNTYGTGCFMLMNTGEKAVKSENGLLTTIACGPTGEVNYALEGAVFMAGASIQWLRDEMKLINDAYDSEYFATKVQNTNGVYVVPAFTGLGAPYWDPYARGAIFGLTRGVNANHIIRATLESIAYQTRDVLEAMQADSGIRLHALRVDGGAVANNFLMQFQSDILGTRVERPEVREVTALGAAYLAGLAVGFWQNLDELQEKAVIEREFRPGIETTERNYRYAGWKKAVKRAMAWEEHDE

Key:
A65T EGK [1] = target: B3; test: linked-functions initial-velocity enzyme kinetics
[2] = target: T1, Escherichia coli glycerol kinase (Escherichia coli, UniProt P0A6F3 1-502); test: linked-functions initial-velocity enzyme kinetics
R369A EGK [3] = target: B2; test: linked-functions initial-velocity enzyme kinetics
A65T EGK [4] = target: B3; test: linked-functions initial-velocity enzyme kinetics; remark: listed apart in the source
[5] = target: T1, Escherichia coli glycerol kinase; test: linked-functions initial-velocity enzyme kinetics; remark: listed apart in the source
R369A EGK [6] = target: B2; test: linked-functions initial-velocity enzyme kinetics; remark: listed apart in the source
AUC = target: the molecule itself; test: AUC

B1: IIA^Glc, the glucose-specific phosphocarrier protein of the phosphoenolpyruvate:glycose phosphotransferase system (natural protein)
chain: GLFDKLKSLVSDDKKDTGTIEIIAPLSGEIVNIEDVPDVVFAEKIVGDGIAIKPTGNKMVAPVDGTIGKIFETNHAFSIESDSGVELFVHFGIDTVELKGEGFKRIAEEGQRVKVGDTVIEFDLPLLEEKAKSTLTPVVISNMDEIKELIKLSGSVTVGETPVIRIKK
**Q.** With B1 as the binder, how does the Kd (A65T EGK [1]) read?
**A.** Its Kd is 28 µM.

**Q.** What about the Kd [2] of the same binder?
**A.** Its Kd is 7 µM.

**Q.** And the Kd (R369A EGK [3])?
**A.** Its Kd is 2 µM.

**Q.** What about the Kd (A65T EGK [4]) of the same binder?
**A.** Its Kd is 8 µM.

**Q.** And the Kd [5]?
**A.** Its Kd is 4.6 µM.

**Q.** What about the Kd (R369A EGK [6]) of the same binder?
**A.** The Kd was 1.8 µM.

**Q.** With B2 as the binder, how does the “stoichiometry N” value (AUC) read?
**A.** Its value is 4.

**Q.** Does B3 bind (AUC)?
**A.** Result: binds
